Data on one substance can be found in patent US20100204147A1, “Methods For Delivering Thymosin Beta 4, Analogues, Isoforms and Other Derivatives” (REGENERX BIOPHARMACEUTICALS, INC., priority 2003, published 2010).

The target in assay [1] is T1, fibrin (Homo sapiens, UniProt P02671).
T1 construct: purchased Enzyme Research Laboratories (South Bend, Ind.); host or cells: fibrin generated in the well or tube from the purchased fibrinogen with bovine thrombin
T1 sequence (P02671 36-629 limits assumed): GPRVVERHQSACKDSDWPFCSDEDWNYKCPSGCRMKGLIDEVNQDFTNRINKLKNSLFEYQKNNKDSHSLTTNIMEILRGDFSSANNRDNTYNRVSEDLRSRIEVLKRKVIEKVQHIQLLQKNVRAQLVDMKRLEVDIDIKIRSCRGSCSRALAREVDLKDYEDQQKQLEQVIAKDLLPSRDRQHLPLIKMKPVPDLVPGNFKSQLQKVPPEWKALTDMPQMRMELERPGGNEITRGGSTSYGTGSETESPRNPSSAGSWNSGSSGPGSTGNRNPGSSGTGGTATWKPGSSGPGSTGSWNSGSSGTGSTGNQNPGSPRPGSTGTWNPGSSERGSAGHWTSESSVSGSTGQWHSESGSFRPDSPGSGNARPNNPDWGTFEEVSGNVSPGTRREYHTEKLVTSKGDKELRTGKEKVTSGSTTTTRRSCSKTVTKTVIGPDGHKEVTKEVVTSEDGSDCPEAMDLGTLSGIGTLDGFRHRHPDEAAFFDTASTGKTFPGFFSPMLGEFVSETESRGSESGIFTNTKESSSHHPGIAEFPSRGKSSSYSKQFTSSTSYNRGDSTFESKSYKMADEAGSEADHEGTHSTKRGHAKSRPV
T1 sequence (P02675 45-491 partner limits assumed): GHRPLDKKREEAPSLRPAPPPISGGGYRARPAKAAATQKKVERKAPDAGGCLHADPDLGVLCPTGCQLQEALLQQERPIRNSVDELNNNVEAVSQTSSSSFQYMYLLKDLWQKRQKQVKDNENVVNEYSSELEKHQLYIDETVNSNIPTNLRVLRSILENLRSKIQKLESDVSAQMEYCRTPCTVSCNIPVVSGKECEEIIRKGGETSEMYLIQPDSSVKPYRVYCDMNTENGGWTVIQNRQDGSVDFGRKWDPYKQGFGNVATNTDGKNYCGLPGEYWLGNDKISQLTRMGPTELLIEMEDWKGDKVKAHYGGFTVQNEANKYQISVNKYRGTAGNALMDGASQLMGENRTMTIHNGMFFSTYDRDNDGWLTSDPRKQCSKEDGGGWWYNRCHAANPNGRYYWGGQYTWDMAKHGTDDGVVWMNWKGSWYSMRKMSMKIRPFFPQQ
T1 sequence (P02679 27-437 isoform P02679-2 partner limits assumed): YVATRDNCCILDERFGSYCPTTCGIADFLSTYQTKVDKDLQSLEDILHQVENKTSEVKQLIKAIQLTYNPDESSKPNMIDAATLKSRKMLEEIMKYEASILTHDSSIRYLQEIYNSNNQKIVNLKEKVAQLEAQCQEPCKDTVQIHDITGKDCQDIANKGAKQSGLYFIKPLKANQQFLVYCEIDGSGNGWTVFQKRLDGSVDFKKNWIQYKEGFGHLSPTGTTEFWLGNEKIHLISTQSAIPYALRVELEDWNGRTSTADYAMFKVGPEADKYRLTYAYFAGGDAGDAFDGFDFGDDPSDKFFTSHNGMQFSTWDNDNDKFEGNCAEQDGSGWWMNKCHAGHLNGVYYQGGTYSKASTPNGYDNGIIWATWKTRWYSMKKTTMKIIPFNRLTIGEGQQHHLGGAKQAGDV
Nature of the assay: Solid-phase binding assay (ELISA), immobilized fibrin. As for the experimental part:
(§1) The interaction between thymosin β4 and fibrin(ogen) and its fragments in the presence or absence of FXIIIa was studies by ELISA using plastic microliter plates. Wells of microliter plates were coated overnight at […] with fibrinogen and fibrin at 10 μg/mL or with the recombinant fragments of 20 μg/ml, all in 0.1 M NaHCO3 buffer, pH 8.3. Fibrin was made by addition to the wells of a mixture containing 10 μg/mL fibrinogen 1 NIH u/ml thrombin and 400 u/ml aprotinin, followed by overnight incubation at +4° C. The wells were then blocked by incubation with Super Blocker (Pierce) at 37° C. for 1 h. Following washing with TBS containing 0.05% Tween-20 (TBS-Tween), the indicated concentrations of thymosin β4, FXIII, FXIIIa(Thr) and FXIIIa(Ca) were added to the wells and incubated for 2-2.5 h at 37° C. Bound (incorporated) thymosin β4 was detected by the reaction with rabbit anti-thymosin β4 serum and peroxidase-conjugated anti-rabbit IgG. A TMB Microwell Peroxidase Substrase was added to the wells, and the incorporated thymosin β4 was measured spectrophotometrically at 450 nm.
In general terms: ELISA stands for enzyme-linked immunosorbent assay.

The target in a further assay is T2, Aα221-391 sub-fragment (Homo sapiens, UniProt P02671).
T2 construct: (residues Aα221-391 and Aα392-610, respectively); made in house; host or cells: E. coli, pET20b expression vector
T2 sequence (P02671 240-410): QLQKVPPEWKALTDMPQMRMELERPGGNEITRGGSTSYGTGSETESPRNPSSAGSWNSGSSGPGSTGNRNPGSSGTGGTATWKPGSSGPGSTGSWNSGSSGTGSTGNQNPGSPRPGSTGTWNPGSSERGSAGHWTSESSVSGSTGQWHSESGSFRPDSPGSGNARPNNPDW
Nature of the assay: ELISA of incorporation into immobilized Aα221-391 sub-fragment. It counts as biochemical. How it is done: as §1

The target in assay [2] is T1, fibrin. Nature of the assay: Factor XIIIa-mediated incorporation of FITC-labeled thymosin β4 into fibrin (spectrophotometric). The assay is classed as biochemical. As for the experimental part: Reactions of incorporation of FITC-labeled and unlabeled thymosin β4 into fibrinogen and fibrin were performed in Eppendorf tubes containing a mixture of fibrinogen at 3 mg/mL (9 μM) and thymosin β4 or FITC-labeled thymosin β4 at […] (30 μM) in 100 μL TBS with 2.5 mM CaCl2. The reactions were initiated by addition of FXIIIa(Ca) or FXIIIa(Thr) to final concentration of 30 μg/mL. The final concentration of thrombin in the FXIIIa(Thr)-containing mixtures was made at 2.5 NIH u/mL, sufficient to rapidly form fibrin clot which was observed visually. The reactions with FITC-labeled thymosin β4 lasted for 4 hours at 37° C. in the dark and were stopped by heat inactiviation of the enzymes in boiling water for 5 min during fibrinogen and fibrin denatured and precipitated. The pellets were centrifuged and washed 3 times in TBS and then solubilized. The amounts of fibrin(ogen) and FITC-labeled thymosin β4 in the solubilized pellet were determined spectrophotomertrically using absorption molar coefficients E280,1%=15.0 and ε495=72,000 M^−1cm^−1, respectively. To prepare samples with unlabeled thymosin β4 for analysis by SDS-PAGE and Western blot the reaction mixtures at the indicated time were heat-inactivated as above and solubilized by addition of sample buffer (Invitrogen) containing SDS and reducing agent.

Take thymosin β4: the “non-covalent interaction with immobilized fibrin (ELISA signal)” value in the assay with fibrin [1] (absence of factor XIII or non-activated factor XIII) is reported as “no significant non-covalent interaction”. In addition, in the assay with fibrin [1] (factor XIII activated by CaCl2), the “factor XIIIa-mediated incorporation into immobilized fibrin (ELISA signal)” value is on record as “higher than that into fibrinogen”. Further, in the assay with Aα221-391 sub-fragment (non-activated factor XIII or without it), the “non-covalent interaction with Aα221-391 sub-fragment (ELISA)” value is recorded as “no significant non-covalent interaction”. The “incorporation into immobilized Aα221-391 (ELISA)” value with Aα221-391 sub-fragment (presence of factor XIIIa) was “very low”. Also, the “degree of incorporation into fibrin” value with fibrin [2] (fibrinogen 9 μM, thymosin β4 30 μM, factor XIIIa with thrombin, 4 hours, 37° C.) amounted to 0.4 moles per mole. In addition, in the assay with fibrin [2] (physiological concentrations of fibrin(ogen) and factor XIII), the “molar incorporation ratio of thymosin β4 to fibrin” value is 0.4.
